Reference: patent US20090285840A1, “METHODS FOR TREATING PATHOLOGICAL NEOVASCULARIZATION” (New York Society for the Ruptured and Crippled Maintaining …, priority 2008, published 2009)

How the values were obtained:
[1] = target: T1, alkaline phosphatase tagged CD34 (amino acids 31-385) (UniProt Q64314)
T1 sequence: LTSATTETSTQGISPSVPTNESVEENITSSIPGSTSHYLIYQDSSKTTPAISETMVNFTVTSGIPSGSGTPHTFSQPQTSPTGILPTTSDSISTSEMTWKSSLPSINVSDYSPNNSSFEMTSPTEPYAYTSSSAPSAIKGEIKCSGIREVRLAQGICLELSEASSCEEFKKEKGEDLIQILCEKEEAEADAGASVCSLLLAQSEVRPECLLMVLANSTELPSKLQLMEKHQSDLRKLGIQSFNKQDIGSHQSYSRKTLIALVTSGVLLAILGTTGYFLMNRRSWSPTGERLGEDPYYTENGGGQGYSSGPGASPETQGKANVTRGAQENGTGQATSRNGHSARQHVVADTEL

[2] = target: alkaline phosphatase tagged CD36 (UniProt P05187)
[3] = target: alkaline phosphatase tagged CD40 (amino acids 24-278) (UniProt P27512)
Sequence of UniProt P27512 (P27512 24-278): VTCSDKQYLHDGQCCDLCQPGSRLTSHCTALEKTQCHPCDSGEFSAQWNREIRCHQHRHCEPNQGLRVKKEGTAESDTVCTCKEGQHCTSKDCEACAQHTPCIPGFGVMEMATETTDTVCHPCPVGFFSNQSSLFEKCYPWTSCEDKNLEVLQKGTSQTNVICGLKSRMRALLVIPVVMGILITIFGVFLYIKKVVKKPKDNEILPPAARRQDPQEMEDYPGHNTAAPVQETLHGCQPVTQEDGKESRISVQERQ

[4] = target: T2, alkaline phosphatase tagged E-Selectin (amino acids 31-612) (UniProt Q00690)
T2 sequence: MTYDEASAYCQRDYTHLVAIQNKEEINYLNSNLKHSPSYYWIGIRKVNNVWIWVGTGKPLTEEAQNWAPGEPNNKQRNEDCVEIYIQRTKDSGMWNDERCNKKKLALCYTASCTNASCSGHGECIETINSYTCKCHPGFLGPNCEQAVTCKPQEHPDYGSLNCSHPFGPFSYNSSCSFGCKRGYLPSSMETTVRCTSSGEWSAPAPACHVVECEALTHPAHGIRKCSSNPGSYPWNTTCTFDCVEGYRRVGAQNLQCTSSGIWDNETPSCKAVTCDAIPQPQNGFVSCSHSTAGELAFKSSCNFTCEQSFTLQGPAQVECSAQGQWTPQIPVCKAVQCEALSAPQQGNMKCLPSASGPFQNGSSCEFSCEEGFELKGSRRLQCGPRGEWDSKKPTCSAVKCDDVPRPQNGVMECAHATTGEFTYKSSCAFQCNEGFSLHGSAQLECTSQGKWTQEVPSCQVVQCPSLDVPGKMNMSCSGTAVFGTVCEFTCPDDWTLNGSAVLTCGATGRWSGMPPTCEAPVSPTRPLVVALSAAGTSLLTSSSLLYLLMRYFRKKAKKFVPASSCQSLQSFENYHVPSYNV

[5] = target: alkaline phosphatase tagged EphB4 (UniProt P05187)
[6] = target: alkaline phosphatase tagged EphrinB2 (UniProt P05187)
[7] = target: alkaline phosphatase tagged FLK-1 (amino acids 605-859) (UniProt P35918)
Sequence of UniProt P35918 (P35918 605-859): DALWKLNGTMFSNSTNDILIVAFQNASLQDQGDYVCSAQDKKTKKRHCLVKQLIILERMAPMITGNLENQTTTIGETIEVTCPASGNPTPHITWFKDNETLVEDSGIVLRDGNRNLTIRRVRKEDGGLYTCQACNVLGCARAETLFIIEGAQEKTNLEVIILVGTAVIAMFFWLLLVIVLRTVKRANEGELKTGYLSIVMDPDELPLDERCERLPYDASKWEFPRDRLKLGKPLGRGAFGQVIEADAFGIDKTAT

[8] = target: alkaline phosphatase tagged ICAM-1 (amino acids 26-532) (UniProt P13597)
Sequence of UniProt P13597 (P13597 26-532): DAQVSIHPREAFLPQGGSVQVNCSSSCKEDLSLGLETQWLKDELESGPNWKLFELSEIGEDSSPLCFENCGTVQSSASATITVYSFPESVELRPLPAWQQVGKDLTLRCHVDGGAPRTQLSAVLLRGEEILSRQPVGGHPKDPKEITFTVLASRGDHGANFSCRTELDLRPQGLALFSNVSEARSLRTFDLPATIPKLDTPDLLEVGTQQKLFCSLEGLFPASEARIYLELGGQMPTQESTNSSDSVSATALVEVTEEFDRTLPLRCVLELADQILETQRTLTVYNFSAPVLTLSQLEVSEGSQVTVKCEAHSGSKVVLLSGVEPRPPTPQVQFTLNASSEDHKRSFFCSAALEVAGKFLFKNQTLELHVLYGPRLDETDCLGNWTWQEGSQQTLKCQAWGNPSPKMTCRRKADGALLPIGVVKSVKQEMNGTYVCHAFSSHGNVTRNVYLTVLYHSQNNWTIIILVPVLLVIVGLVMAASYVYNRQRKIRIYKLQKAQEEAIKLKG

[9] = target: alkaline phosphatase tagged Tie-2 (amino acids 580-833) (UniProt Q02858)
Sequence of UniProt Q02858 (Q02858 580-833): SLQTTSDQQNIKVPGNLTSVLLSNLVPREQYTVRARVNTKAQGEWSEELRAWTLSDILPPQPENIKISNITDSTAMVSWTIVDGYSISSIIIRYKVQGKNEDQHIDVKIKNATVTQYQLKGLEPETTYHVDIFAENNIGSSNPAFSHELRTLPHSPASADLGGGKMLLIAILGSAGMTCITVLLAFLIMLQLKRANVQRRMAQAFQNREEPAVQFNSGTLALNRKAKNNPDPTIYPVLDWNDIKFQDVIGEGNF

[10] = target: T3, alkaline phosphatase tagged VCAM-1 (amino acids 28-739) (UniProt P29533)
T3 sequence: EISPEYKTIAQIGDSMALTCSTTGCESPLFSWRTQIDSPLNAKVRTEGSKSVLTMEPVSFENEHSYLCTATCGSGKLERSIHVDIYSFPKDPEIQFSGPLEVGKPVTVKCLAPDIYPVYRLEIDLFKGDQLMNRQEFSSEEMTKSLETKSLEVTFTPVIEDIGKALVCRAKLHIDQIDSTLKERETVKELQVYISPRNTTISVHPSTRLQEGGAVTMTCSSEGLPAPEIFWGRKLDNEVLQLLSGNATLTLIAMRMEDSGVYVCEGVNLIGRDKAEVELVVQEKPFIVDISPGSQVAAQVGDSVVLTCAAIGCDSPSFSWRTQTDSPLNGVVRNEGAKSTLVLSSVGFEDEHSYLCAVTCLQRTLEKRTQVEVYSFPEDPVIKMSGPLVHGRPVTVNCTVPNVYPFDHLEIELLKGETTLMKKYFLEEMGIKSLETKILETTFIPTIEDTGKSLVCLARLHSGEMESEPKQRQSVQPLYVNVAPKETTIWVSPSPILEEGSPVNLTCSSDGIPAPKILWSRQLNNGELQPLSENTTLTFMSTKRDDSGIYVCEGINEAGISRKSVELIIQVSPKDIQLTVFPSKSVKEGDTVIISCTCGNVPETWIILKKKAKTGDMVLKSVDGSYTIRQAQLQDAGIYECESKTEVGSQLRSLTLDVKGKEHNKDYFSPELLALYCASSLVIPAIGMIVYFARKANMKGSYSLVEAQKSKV

[11] = target: alkaline phosphatase tagged VE-Cadherin (UniProt P05187)
ADAM9 = ADAM9 expression in mouse embryonic fibroblasts treated with H2O2 (immunoblot); assay type: cell-based; details: MEF cells from wildtype mice, H2O2 200 μM (highest concentration), 6 hrs
EphB4 = test: Alkaline phosphatase shedding assay of transiently expressed EphB4 in mouse embryonic fibroblasts treated with H2O2; assay type: cell-based
Method: Stimulation of ADAM9-dependent shedding. […] Alkaline phosphatase shedding assays were performed as described (Weskamp et al., 1996, Cell Biol. 132:717-726; Zheng et al., 2002, J. BioI. Chem. 277:42463-42470) in (mouse embryonic fibroblasts) MEF cells and in pig aortic endothelial cells (PAE cells, kindly provided by Dr. Shahin Rafii). Reactive oxygen species (ROS) assays were performed using a modified version of the procedure reported by Sung et al., 2006, Cancer Res 66:9519-26). Specifically, 20 hours post-transfection, cells maintained at 50-60% culture density were washed twice with OptiMem over the course of 1 hour. […] The resulting supernatants and lysates were collected and assayed in triplicate for alkaline phosphatase activity as described previously (Sahin et al., 2006, “A sensitive method to monitor ectodomain shedding of ligands of the epidermal growth factor receptor,” In Epidermal Growth Factor: Methods and Protocols, In P. J. B. and T. B. Patel eds., Vol. 327, p. 99-113., Humana Press Inc., Totowa, N.J.; Sahin et al., J. Cell Biol. 164:769779; Zheng et al., 2002, J. BioI. Chem. 277:42463-42470). All data presented here representative example from at least three independent assays.
The shedding of EphB4 from Adam9 −/− cells could be rescued by transfection with ADAM9, however, the resulting activity could not be further enhanced by treatment with H2O2. […]

Sequence of ADAM9 (wild type, overexpressed from an expression construct) (Q13443 whole entry): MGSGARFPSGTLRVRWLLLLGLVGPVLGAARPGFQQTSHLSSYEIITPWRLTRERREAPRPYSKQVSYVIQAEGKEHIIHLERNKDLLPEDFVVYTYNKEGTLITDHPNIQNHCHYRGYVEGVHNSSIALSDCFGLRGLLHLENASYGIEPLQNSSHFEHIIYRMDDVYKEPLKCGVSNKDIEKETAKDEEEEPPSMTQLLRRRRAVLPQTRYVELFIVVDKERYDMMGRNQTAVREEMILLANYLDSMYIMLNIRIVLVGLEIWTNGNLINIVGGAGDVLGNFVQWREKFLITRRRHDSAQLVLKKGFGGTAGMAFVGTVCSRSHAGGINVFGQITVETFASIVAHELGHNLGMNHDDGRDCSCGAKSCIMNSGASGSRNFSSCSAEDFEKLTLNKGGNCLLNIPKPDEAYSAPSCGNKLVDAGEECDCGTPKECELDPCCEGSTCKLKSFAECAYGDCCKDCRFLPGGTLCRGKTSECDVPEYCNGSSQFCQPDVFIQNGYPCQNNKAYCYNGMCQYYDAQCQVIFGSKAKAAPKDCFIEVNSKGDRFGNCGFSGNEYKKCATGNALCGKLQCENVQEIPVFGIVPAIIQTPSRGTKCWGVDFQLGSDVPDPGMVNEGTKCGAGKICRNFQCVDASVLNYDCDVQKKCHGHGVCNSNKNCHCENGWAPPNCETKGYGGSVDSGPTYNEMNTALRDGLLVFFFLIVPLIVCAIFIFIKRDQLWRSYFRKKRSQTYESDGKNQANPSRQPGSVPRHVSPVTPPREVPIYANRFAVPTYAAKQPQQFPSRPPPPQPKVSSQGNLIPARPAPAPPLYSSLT

ADAM9 (wild type, overexpressed from an expression construct)
shedding (alkaline phosphatase activity released into the supernatant) [1]: Overexpression of ADAM9 did not increase the shedding of E-selectin, ICAM-1, Ephrin B2, CD34 and CD36 compared to ADAM9 E>A, at least under the conditions used here | shedding (alkaline phosphatase activity released into the supernatant) [2]: Overexpression of ADAM9 did not increase the shedding of E-selectin, ICAM-1, Ephrin B2, CD34 and CD36 compared to ADAM9 E>A, at least under the conditions used here | shedding (alkaline phosphatase activity released into the supernatant) [3]: overexpression of ADAM9 increased the shedding of CD40, EphB4, Flk1, Tie-2, VE-cadherin and VCAM compared to cells overexpressing ADAM9 E>A together with these substrates | shedding (alkaline phosphatase activity released into the supernatant) [4]: Overexpression of ADAM9 did not increase the shedding of E-selectin, ICAM-1, Ephrin B2, CD34 and CD36 compared to ADAM9 E>A, at least under the conditions used here | shedding (alkaline phosphatase activity released into the supernatant) [5]: overexpression of ADAM9 increased the shedding of CD40, EphB4, Flk1, Tie-2, VE-cadherin and VCAM compared to cells overexpressing ADAM9 E>A together with these substrates | shedding (alkaline phosphatase activity released into the supernatant) [6]: Overexpression of ADAM9 did not increase the shedding of E-selectin, ICAM-1, Ephrin B2, CD34 and CD36 compared to ADAM9 E>A, at least under the conditions used here | shedding (alkaline phosphatase activity released into the supernatant) [7]: overexpression of ADAM9 increased the shedding of CD40, EphB4, Flk1, Tie-2, VE-cadherin and VCAM compared to cells overexpressing ADAM9 E>A together with these substrates | shedding (alkaline phosphatase activity released into the supernatant) [8]: Overexpression of ADAM9 did not increase the shedding of E-selectin, ICAM-1, Ephrin B2, CD34 and CD36 compared to ADAM9 E>A, at least under the conditions used here | shedding (alkaline phosphatase activity released into the supernatant) [9]: overexpression of ADAM9 increased the shedding of CD40, EphB4, Flk1, Tie-2, VE-cadherin and VCAM compared to cells overexpressing ADAM9 E>A together with these substrates | shedding (alkaline phosphatase activity released into the supernatant) [10]: overexpression of ADAM9 increased the shedding of CD40, EphB4, Flk1, Tie-2, VE-cadherin and VCAM compared to cells overexpressing ADAM9 E>A together with these substrates | shedding (alkaline phosphatase activity released into the supernatant) [11]: overexpression of ADAM9 increased the shedding of CD40, EphB4, Flk1, Tie-2, VE-cadherin and VCAM compared to cells overexpressing ADAM9 E>A together with these substrates

OO [H2O2]
ADAM9 expression (ADAM9): increase in ADAM9 expression | EphB4 shedding (EphB4; Adam9 −/− cells expressing EphB4, 100 or 200 μM H2O2): no increase in EphB4 shedding | shedding of transiently expressed EphB4 (EphB4; wt MEF cells, 100 or 200 μM H2O2 for 6 hrs): strong increase in the shedding
